Measured values as given in the supplement of paper PMC10065799, “High-throughput profiling of sequence recognition by tyrosine kinases and SH2 domains using bacterial peptide display” (eLife, 2023).

What was measured:
AncSZ = assay: phosphorylation enrichment, bacterial display (enrichment ratio); higher = better substrate or ligand; peptides without Tyr show the background
EPHB1 = EPHB1 (UniProt P54762); assay: as above
EPHB2 = EPHB2 (UniProt P29323); assay: as above
FGFR1 = FGFR1 (UniProt P11362); assay: as above
Sequence of FGFR1 (P11362 whole entry, looked up): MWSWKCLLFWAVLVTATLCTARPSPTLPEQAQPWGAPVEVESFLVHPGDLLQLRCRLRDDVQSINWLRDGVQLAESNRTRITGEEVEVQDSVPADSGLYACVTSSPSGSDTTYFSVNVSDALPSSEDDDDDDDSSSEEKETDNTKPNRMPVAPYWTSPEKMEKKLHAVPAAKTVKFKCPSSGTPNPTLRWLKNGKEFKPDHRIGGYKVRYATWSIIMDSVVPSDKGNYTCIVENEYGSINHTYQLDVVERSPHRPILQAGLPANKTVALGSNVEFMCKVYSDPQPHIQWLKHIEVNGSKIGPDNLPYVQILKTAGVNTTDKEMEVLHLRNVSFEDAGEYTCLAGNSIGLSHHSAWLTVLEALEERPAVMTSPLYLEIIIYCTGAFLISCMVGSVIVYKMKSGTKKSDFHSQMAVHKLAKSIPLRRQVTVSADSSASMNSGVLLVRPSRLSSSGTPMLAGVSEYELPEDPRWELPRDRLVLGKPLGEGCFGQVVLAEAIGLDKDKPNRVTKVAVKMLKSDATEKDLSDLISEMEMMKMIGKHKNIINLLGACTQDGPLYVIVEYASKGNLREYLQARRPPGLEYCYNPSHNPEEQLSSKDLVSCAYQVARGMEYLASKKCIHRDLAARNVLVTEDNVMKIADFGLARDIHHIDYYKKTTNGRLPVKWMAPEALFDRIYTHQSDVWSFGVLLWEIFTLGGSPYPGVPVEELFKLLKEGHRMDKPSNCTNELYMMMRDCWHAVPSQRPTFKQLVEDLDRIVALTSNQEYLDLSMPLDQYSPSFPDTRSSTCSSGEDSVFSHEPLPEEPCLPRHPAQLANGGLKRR

FGFR3 = FGFR3 (UniProt P22607); assay: as above
Sequence of FGFR3 (P22607 whole entry, looked up): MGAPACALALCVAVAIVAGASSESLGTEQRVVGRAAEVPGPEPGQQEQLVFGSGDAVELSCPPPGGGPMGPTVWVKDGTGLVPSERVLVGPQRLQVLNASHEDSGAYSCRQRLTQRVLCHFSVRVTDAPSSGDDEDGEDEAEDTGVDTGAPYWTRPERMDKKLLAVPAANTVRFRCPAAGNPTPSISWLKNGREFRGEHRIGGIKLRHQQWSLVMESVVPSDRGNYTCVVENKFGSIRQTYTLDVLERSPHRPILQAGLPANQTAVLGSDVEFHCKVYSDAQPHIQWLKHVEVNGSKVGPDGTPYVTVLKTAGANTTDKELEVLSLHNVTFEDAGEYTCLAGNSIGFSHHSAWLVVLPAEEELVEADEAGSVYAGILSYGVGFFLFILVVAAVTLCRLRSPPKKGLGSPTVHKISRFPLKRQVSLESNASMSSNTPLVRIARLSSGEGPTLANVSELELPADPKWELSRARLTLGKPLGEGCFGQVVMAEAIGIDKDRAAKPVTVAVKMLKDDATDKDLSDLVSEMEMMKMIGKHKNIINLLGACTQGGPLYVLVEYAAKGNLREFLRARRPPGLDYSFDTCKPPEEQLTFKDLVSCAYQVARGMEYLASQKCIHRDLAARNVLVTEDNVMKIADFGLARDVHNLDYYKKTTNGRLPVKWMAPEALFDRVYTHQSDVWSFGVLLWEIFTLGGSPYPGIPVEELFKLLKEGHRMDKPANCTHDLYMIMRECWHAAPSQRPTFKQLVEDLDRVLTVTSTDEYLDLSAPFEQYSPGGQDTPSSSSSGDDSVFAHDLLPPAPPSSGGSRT

Fer (mouse) = assay: as above
Fes = Fes (UniProt P07332); assay: as above
Fyn = Fyn (UniProt P06241); assay: as above
Sequence of Fyn (P06241 whole entry, looked up): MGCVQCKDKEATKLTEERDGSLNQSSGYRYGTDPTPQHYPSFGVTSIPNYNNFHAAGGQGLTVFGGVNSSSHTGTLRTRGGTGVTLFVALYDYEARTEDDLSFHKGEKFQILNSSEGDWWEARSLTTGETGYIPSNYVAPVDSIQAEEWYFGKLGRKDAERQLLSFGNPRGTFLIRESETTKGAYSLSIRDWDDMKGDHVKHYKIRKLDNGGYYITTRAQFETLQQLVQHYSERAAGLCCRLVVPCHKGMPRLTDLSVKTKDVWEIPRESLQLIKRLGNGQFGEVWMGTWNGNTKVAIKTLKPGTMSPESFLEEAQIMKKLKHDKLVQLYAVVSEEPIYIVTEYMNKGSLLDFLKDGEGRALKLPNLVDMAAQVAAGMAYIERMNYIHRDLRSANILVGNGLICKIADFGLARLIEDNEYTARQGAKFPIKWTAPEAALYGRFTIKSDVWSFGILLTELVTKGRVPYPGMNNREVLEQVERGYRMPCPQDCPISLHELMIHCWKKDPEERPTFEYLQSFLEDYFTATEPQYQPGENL

Hck = Hck (UniProt P08631); assay: as above
Sequence of Hck (P08631 whole entry, looked up): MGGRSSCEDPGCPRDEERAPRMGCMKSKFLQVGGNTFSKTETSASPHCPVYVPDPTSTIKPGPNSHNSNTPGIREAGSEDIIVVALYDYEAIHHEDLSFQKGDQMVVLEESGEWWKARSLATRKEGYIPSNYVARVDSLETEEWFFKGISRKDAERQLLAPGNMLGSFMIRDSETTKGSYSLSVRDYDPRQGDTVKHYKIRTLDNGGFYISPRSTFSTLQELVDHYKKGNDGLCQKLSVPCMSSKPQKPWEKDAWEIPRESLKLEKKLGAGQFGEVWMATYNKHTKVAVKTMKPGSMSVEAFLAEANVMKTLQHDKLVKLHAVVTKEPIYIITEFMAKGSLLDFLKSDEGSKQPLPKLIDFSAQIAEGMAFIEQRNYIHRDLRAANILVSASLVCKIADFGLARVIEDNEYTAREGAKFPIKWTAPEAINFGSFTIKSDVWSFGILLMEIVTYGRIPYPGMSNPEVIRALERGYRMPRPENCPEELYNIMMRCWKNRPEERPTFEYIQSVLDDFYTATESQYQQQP

Jak2 = Jak2 (UniProt O60674); assay: as above
MERTK = MERTK (UniProt Q12866); assay: as above
Sequence of MERTK (Q12866 whole entry, looked up): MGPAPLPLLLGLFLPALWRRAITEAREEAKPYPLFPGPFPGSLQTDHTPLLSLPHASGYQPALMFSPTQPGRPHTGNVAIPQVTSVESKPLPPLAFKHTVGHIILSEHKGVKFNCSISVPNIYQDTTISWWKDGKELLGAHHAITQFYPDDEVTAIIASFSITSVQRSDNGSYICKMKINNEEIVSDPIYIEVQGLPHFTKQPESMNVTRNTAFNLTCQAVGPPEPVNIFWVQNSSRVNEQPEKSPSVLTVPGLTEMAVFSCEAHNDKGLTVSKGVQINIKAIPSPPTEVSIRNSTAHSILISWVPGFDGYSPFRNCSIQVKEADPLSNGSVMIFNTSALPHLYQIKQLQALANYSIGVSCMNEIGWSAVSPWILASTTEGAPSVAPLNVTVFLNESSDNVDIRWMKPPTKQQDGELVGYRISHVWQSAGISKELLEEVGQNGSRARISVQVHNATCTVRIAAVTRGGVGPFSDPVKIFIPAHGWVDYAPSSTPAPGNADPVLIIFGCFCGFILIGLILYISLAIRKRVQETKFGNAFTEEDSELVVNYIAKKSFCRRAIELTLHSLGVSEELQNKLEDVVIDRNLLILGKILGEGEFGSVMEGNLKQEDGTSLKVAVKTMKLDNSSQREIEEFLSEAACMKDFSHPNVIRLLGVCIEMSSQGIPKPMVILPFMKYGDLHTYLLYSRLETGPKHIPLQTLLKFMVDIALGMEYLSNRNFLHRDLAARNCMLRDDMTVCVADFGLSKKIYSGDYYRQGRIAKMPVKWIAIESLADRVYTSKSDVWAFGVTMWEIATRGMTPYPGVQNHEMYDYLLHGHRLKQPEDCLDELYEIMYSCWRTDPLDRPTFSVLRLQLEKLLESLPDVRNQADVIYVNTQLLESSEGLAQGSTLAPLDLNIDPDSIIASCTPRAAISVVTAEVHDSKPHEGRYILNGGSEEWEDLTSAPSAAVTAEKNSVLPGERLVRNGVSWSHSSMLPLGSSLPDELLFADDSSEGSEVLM

c-Abl (mouse) = assay: as above
c-Src = assay: as above
Grb2 SH2 = Grb2 SH2 (UniProt P62993); assay: SH2 binding enrichment of the phosphorylated peptide, bacterial display (enrichment ratio); higher = better substrate or ligand; peptides without Tyr show the background
SHP2-C SH2 = assay: as above
c-Src SH2 = assay: as above
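For SH2 binding enrichment of the phosphorylated peptide, bacterial display in this document: peptide library displayed on the E. coli surface as eCPX fusions, selected cells deep-sequenced, score is each peptide's frequency after selection divided by its frequency in the input.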
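For phosphorylation enrichment, bacterial display in this document: 11-residue human phosphosite peptides and single-mutation variants displayed on the E. coli surface, counted by deep sequencing, each peptide's frequency after selection divided by its frequency in the unselected input library; frequency after pTyr selection over input frequency; kinase dosed for 20-30% of maximal phosphorylation in three min.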

Sequence of EPHB1 (P54762 whole entry, looked up): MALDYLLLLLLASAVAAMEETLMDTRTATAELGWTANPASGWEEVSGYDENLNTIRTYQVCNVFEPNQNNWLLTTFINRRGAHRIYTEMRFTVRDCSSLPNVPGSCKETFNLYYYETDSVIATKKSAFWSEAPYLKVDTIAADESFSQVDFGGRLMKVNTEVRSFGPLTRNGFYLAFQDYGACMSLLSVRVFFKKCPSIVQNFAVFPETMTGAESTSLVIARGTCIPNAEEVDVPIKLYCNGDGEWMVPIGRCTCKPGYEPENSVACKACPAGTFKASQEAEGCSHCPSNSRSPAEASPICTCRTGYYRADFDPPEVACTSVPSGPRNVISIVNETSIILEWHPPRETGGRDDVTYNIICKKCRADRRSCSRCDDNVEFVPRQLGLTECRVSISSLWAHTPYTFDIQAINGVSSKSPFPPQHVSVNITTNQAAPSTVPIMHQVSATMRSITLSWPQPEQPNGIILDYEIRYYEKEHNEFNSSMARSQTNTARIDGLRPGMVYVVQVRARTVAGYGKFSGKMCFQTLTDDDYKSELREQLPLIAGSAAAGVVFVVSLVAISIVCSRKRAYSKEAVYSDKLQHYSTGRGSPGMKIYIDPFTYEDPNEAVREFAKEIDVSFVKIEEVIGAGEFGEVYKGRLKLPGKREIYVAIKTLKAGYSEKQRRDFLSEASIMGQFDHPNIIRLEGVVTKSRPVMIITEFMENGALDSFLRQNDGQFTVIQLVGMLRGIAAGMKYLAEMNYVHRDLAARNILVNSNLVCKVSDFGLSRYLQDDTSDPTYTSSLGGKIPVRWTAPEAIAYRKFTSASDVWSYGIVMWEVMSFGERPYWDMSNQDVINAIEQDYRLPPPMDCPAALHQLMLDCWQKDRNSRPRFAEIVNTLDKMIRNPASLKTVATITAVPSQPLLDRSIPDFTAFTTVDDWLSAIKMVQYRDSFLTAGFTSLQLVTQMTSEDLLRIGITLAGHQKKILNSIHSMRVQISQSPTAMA

SH2 binding enrichment (Grb2 SH2)	SH2 binding enrichment (SHP2-C SH2)	SH2 binding enrichment (c-Src SH2)	Sequence	phosphorylation enrichment (AncSZ)	phosphorylation enrichment (EPHB1)	phosphorylation enrichment (EPHB2)	phosphorylation enrichment (FGFR1)	phosphorylation enrichment (FGFR3)	phosphorylation enrichment (Fer (mouse))	phosphorylation enrichment (Fes)	phosphorylation enrichment (Fyn)	phosphorylation enrichment (Hck)	phosphorylation enrichment (Jak2)	phosphorylation enrichment (MERTK)	phosphorylation enrichment (c-Abl (mouse))	phosphorylation enrichment (c-Src)
0.781	0.903	36.4	SAQHHYESLQT [BIN1_Y157_R154Q]	0.763	0.463	0.402	0.47	0.442	0.703	0.622	0.418	0.513	0.484	0.504	0.601	0.433
0.854	0.952	34.4	SARHHYESLQT [BIN1_Y157]	0.532	0.431	0.374	0.445	0.396	0.499	0.564	0.36	0.446	0.479	0.455	0.636	0.447
0.845	0.676	0.636	SDGHEYIFVDR [PDGFRB_Y579_P584R_YF]	0.962	0.427	0.448	1.04	0.833	0.329	0.759	0.436	0.398	0.71	0.35	0.489	0.517
0.845	2.52	0.481	SEEVTYATLTF [CLEC12B_Y7]	1.48	0.98	1.07	1.49	1.57	2.19	1.53	6.58	5.06	1.38	2.18	5.98	5.28
0.777	0.759	2.12	SFTDPYAQPSL [KMT2D_Y2378_P2382S_YF]	0.743	0.47	0.526	0.508	0.67	0.447	0.806	0.481	0.581	0.689	0.429	0.747	0.447
0.735	0.737	0.425	SGFESYGSSSS [RPA2_Y9_Y14S]	0.651	0.47	0.617	0.461	0.599	0.521	0.658	0.453	0.484	0.555	0.502	0.633	0.541
0.699	0.572	0.58	SGTFQYIIAKF [FOXL2_Y83_I80T_YF]	1.09	0.448	0.491	0.494	0.793	0.473	1.27	0.532	0.418	0.953	0.393	0.878	0.366
1.02	1.05	0.777	SHKELYKWFTS [DYNC1H1_Y3051_E3048K]	0.634	0.544	0.439	0.897	0.501	0.574	0.812	0.513	0.566	0.717	0.66	0.566	0.576
0.734	0.751	0.529	SHLSAFPALEG [CD5_Y465_Y465F]	0.553	0.431	0.367	0.354	0.52	0.312	0.612	0.352	0.402	0.5	0.347	0.407	0.328
1.39	1.33	1.25	SHSMRYFFTAV [HLA-C_Y31_D33F]	1.13	0.595	0.626	0.62	0.874	0.619	1.3	0.53	0.525	1.13	0.525	0.923	0.568
0.942	0.913	1.44	SKAFAYVHFDS [PABPC5_Y149_G146A_YF]	0.935	0.447	0.483	0.449	0.828	0.537	1.36	0.382	0.51	1.09	0.443	0.669	0.424
0.764	0.607	0.482	SLESAYPEVSQ [TTF1_Y357_G360V]	0.951	0.514	0.792	0.507	0.611	0.4	0.941	0.447	0.858	1.09	0.471	1.55	0.523
0.986	6.44	2.57	SLIDGYYRLTA [JAK2_Y372]	0.92	0.457	0.495	2.49	1.69	0.427	0.926	0.467	0.475	7.08	0.436	0.522	0.451
1.01	0.783	0.72	SNKLHYQLEQE [PDPR_Y110_Y109H]	0.917	0.504	0.505	0.496	0.673	0.498	1	0.519	0.535	0.699	0.442	0.647	0.443

Continued, sequence first:

Sequence	SH2 binding enrichment (Grb2 SH2)	SH2 binding enrichment (SHP2-C SH2)	SH2 binding enrichment (c-Src SH2)	phosphorylation enrichment (AncSZ)	phosphorylation enrichment (EPHB1)	phosphorylation enrichment (EPHB2)	phosphorylation enrichment (FGFR1)	phosphorylation enrichment (FGFR3)	phosphorylation enrichment (Fer (mouse))	phosphorylation enrichment (Fes)	phosphorylation enrichment (Fyn)	phosphorylation enrichment (Hck)	phosphorylation enrichment (Jak2)	phosphorylation enrichment (MERTK)	phosphorylation enrichment (c-Abl (mouse))	phosphorylation enrichment (c-Src)
SECCKYKIDNL [OSMR_Y689_P694L]	0.739	0.477	0.43	0.864	0.551	0.384	0.462	0.685	0.473	0.939	0.446	0.428	0.823	0.432	0.748	0.436
SFPPTYRFERG [INPPL1_Y661_YF]	0.868	0.767	0.442	0.638	0.405	0.626	0.393	0.476	0.362	0.603	0.412	0.369	0.51	0.418	0.556	0.592
SGPRRYTIATL [TTR_Y125_A129T]	0.803	0.723	0.539	0.472	1.36	0.344	0.432	0.398	0.361	0.44	0.377	0.372	1.03	0.425	0.39	0.375
SIKDKHVTALF [KCNH2_Y611_Y611H_YF]	0.659	0.456	0.443	0.576	0.354	0.42	0.418	0.435	0.399	0.633	0.417	0.463	0.441	0.469	0.486	0.52
SISLKYEGRVY [ABL1_Y167_R166K]	0.814	0.66	0.388	1.13	0.663	0.747	0.51	0.897	0.499	1.38	0.47	0.507	1.24	0.451	0.983	0.511
SKEPFYVHCIK [MYO1D_Y586_R588H_YF]	0.981	0.898	0.574	1.08	0.614	0.577	0.484	0.682	0.467	1.07	0.44	0.528	0.864	0.433	0.631	0.418
SKKSTYRALLD [GANC_Y43_Q44R]	0.651	0.688	0.465	0.471	0.368	0.315	0.347	0.348	0.358	0.655	0.432	0.406	0.533	0.421	0.447	0.385
SLDHPYEKPRK [INAVA_Y333]	0.852	0.683	1.77	0.741	0.349	0.467	0.339	0.421	0.388	0.63	0.371	0.39	0.436	0.329	0.423	0.352
SLEKSYELLDG [ACTB_Y240_P243L]	1.01	0.729	4.69	1.16	0.575	0.584	0.508	0.963	0.705	1.16	0.533	0.595	1.25	0.555	0.956	0.52
SLIEHYEPSET [PLCD1_Y258_R257H]	0.927	0.806	0.929	1.05	0.541	0.548	0.586	0.704	0.525	0.977	0.513	0.535	0.983	0.422	0.624	0.446
SLLLSYFLIKW [NUP160_Y773_P768S_YF]	1.3	0.978	1.15	1.56	0.691	0.788	0.732	1.08	0.719	1.46	0.589	0.654	1.51	0.514	1.05	0.512
SMEMKYLEEKN [ZAP70_Y451_G448E]	0.906	0.786	0.549	1.15	0.825	0.659	0.535	1.07	0.572	1.47	0.706	0.548	1.22	0.48	1.17	0.609
SMGHRYIEVFK [HNRNPF_Y82]	1.03	0.988	2.08	0.744	0.398	0.38	0.408	0.483	0.438	1	0.354	0.407	1.05	0.361	0.757	0.445
SPDMLYQFLKQ [RPAP3_Y567_YF]	0.782	0.683	0.499	0.997	0.943	0.749	1.7	1.35	7.72	0.971	0.792	7.82	0.679	4.98	0.695	1.77
SPPEVYAIMRG [NTRK1_Y757_C752S]	0.711	1.16	0.611	0.99	1.12	0.641	0.506	0.524	0.525	0.808	1.63	2.91	0.718	1.82	0.609	2.64
SQQTYYPVSNM [ABCD1_Y181_R182P]	0.864	0.534	0.532	1.32	5.58	4.24	13.5	10.5	0.946	0.68	3.77	6.81	9.57	10.5	2.44	5.27
SRDTRYLVLAV [AMH_Y195]	1.13	2.34	0.811	0.93	0.636	0.559	0.543	0.683	0.552	1.1	0.492	0.476	0.909	0.487	0.739	0.514
SRLDSYVRSLP [TRAPPC1_Y133]	0.725	0.531	0.546	0.579	0.606	0.395	0.427	0.525	0.338	0.666	0.373	0.443	0.556	0.447	0.473	0.448
SSAAGYACLAF [MVD_Y131_YF]	0.732	10	1.55	0.948	0.536	0.455	0.446	0.763	0.493	1.07	0.428	0.585	0.919	0.538	0.946	0.494
